Measurements taken from patent publication US20030092157, “Compositions, screening systems and methods for modulating HDL cholesterol and triglyceride levels” (published 2003).

Columns and labels:
[1] = molecular target: T1, LXRα/RXRα heterodimer (/ Mus musculus, UniProt Q13133;P28700 Q13133:1-447,P28700:1-467); test: competition; dose-dependent competition, 5-, 25-, 50-fold excess; conditions: tags: pCDNA3-LXRα and pSG5-mRXRα, TNT coupled transcription/translation system (Promega)
T1 sequence 1: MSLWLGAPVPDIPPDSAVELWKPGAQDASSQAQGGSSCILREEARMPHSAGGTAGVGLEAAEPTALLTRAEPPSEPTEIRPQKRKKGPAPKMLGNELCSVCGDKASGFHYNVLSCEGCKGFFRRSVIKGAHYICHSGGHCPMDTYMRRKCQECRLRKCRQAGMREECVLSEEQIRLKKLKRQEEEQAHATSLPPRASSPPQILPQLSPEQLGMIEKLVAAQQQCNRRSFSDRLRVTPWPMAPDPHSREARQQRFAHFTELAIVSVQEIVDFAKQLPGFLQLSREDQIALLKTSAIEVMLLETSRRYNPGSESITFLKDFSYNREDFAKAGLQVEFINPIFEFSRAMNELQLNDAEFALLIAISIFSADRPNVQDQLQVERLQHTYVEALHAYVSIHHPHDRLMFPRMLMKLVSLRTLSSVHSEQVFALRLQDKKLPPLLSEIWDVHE
T1 sequence 2: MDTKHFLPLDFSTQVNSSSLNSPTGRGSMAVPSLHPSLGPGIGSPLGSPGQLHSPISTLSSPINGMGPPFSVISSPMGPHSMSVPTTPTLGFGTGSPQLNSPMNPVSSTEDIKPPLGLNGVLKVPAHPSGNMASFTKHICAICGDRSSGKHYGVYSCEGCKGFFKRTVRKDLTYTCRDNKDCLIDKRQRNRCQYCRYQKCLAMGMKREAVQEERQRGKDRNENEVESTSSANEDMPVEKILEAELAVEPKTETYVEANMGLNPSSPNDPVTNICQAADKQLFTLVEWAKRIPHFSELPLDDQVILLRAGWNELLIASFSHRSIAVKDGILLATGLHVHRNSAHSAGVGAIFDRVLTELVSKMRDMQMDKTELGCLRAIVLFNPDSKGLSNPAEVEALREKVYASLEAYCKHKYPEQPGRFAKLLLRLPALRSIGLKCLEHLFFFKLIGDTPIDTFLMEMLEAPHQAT
Description: (§1) For FIG. 2A, HepG2 (liver), HuH7 (hepatoma), CaCo₂ (intestinal) and RK13 (kidney) cell lines were cotransfected with empty pGI3 vector or pGI3 containing an 8 kb fragment upstream of exon 2 of ABC1 intron 1 (pGI3-8 kb). Cells were then incubated for 48 hour. Luciferase activity was determined and plotted as fold activation relative to empty pGI3-transfected cells. The results of gel mobility shift assays in which LXRα and RXR were incubated as indicated with the radiolabeled probe corresponding to CYP7-LXRE are shown in FIG. 2B.
(§2) To investigate whether these DR4 were indeed able to bind LXR-RXR heterodimers, gel retardation assays were performed (FIG. 2B). […] As a control, the unlabeled LXRE previously described in ABC1 exon 1 (+4-LXRE) (10,11) also competed efficiently for binding. The signal was then competed with increasing quantities of each unlabeled putative LXRE.

[2] = molecular target: T2, LXRα/RXR heterodimer (expressed in Cos-1) (Homo sapiens? / Mus musculus?, UniProt Q13133;P28700 Q13133:1-447,P28700:1-467); test: cell_activity; 3 copies, luciferase, 1 µM 22(R)-hydroxycholesterol; text's "2-fold and 6-fold, respectively"
T2 sequence 1: T1 sequence 1
T2 sequence 2: T1 sequence 2
Description: (§3) FIG. 3 is a bar graph illustrating that the LXREs are functional for LXRα transactivation. Cos-1 cells were cotransfected with multiple copies of the putative LXREs in the reporter plasmid TKpGI3 and expression plasmids for LXRα and RXR. Cells were then treated for 48 h with 1 μM 22(R)-hydroxycholesterol. Luciferase activity was determined and plotted as fold activation relative to vehicle-treated cells.
(§4) Cells were transfected for 3 hours by lipofection using ExGen 500 (Euromedex) in OPTIMEM 1. Medium was then replaced by Dulbecco's Modified Eagle's Medium (DMEM) containing 0.2% fetal calf serum and cells were incubated for 48 hours. Cell extracts were prepared and assayed for luciferase activity as described(15). Twenty-four hours before transfection, HepG2 cells, HUH7 cells, CaCo2 cells and RK13 cells were plated in 24-well plates in DMEM supplemented with 10% fetal calf serum at 5×10⁴ cells/well. Transfection mixes contained 100 ng of tkpGI3 reporter vector or pGI3 containing an 8 kb fragment from ABC1 intron I (pGI3-8 kb) (FIG. 1). Cos-1 cells were plated in 24-well plates in DMEM supplemented with 10% fetal calf serum at 5×10⁴ cells/well. Transfection mixes contained 50 ng of reporter plasmid (tkpGI3) containing multiple copies of the putative LXREs and 25 ng of LXRα and RXR expression plasmids, in the presence of the internal control β-gal expression vector. […]

[3] = molecular target: T1, LXRα/RXRα heterodimer; test: competition; competed efficiently for CYP7-LXRE probe; conditions: tags: pCDNA3-LXRα and pSG5-mRXRα, TNT coupled transcription/translation system (Promega)
Description: as §1, §2

[4] = molecular target: T2, LXRα/RXR heterodimer (expressed in …); test: cell_activity; 3 copies, luciferase, 1 µM 22(R)-hydroxycholesterol
Description: as §3, §4

B1: -7188 LXRE (ABC1 intron 1) (dsDNA)
DNA 1: AGATCACTTGAGGTCA
DNA 2: TGACCTCAAGTGATCT
- binding result [1]: binds

B2: -7670 LXRE (ABC1 intron 1) (dsDNA)
DNA 1: AGGTTACTGAAGGCCA
DNA 2: TGGCCTTCAGTAACCT
- activity [2]: 6 fold induction

B3: +4-LXRE (ABC1 exon 1/promoter) (dsDNA)
DNA 1: AGGTTACTATCGGTCA
DNA 2: TGACCGATAGTAACCT
- binding result [3]: binds

B4: -4696 LXRE (ABC1 intron 1) (dsDNA)
DNA 1: GGATCACCTGAGGTCA
DNA 2: TGACCTCAGGTGATCC
- activity [4]: 2 fold induction
